Laboratory results from patent publication US20230250193A1 (PROVIVA THERAPEUTICS HONG KONG, published 2023).

Target: T1, human FAPα (fibroblast activation protein-α) expressed on cells (human, UniProt Q12884 1-760)
T1 construct: also called cells expressing FAP
T1 sequence: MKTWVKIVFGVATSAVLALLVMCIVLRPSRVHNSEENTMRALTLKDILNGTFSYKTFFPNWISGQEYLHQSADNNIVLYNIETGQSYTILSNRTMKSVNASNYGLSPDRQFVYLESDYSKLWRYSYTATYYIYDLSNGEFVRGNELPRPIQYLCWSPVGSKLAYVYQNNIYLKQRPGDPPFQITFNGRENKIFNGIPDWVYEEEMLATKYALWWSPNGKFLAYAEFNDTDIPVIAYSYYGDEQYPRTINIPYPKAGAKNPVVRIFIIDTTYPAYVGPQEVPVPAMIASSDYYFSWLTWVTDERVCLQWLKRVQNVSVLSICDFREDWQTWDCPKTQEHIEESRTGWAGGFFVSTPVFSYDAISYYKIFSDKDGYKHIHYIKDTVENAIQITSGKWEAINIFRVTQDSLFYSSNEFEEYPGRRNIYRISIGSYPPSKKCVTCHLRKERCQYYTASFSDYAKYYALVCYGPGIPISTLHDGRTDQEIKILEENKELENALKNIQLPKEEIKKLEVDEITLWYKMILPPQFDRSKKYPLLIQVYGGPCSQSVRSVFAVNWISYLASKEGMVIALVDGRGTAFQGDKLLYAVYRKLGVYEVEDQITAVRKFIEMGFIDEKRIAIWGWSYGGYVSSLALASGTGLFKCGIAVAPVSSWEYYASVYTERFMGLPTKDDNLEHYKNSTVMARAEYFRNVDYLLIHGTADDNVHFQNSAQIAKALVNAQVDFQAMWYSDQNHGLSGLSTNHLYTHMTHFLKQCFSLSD
Assay: flow cytometry on FAPα-expressing cells, PE-labeled anti-human IgG detection
Description: FACS analysis. FACS analysis was performed for purified antibodies. Binding of Expi293 expression supernatant or purified antibodies to FAPα and/or B7H3 expressing cells was determined by flow cytometry. lx […] were incubated for 1 hour at 4° C. with purified antibodies. After washing twice with cold FACS buffer (PBS containing 1% BSA and 0.1% sodium azide), cell surface bound antibody was detected by incubating the cells with phycoerythrin (PE)-labeled anti-human IgG antibody (Jackson Immuno, Cat #109-116-098) for 1 hour at 4° C. Cells were washed twice in FACS buffer and analyzed using Guava EasyCyte HT (Merck Millipore).

binding result: binds
B1: P28832158 (antibody, human IgG1, kappa, V domains shown)
VH: QVQLVQSGAEVKKPGASVKVSCKASGYTFTMNIIHWVRQAPGQGLEWMGWIHPGSGAIKYAQKLQGRVTMTTDTSTSTAYMELRSLRSDDTAVYYCARHGGTGRGAMDYWGQGTLVTVSS
VL: EIVLTQSPGTLSLSPGERATLSCRASQSVSTSAYSYMHWYQQKPGQAPRLLIYLASNLESGIPDRFSGSGSGTDFTLTISRLEPEDFAVYYCQQSRELPYTFGQGTKLEIKR
notes: Produced in Expi293 cells; also called M-87_G1; VH6.32/VL7.00
